Publication PMC2915561 (Biochemistry, 2010)

Tests used:
SEC [1] = biological target: the molecule itself; experiment: SEC
SEC [2] = biological target: the molecule itself; experiment: SEC; remark: listed apart in the source
SAXS = biological target: the molecule itself; experiment: SAXS

Protein | stoichiometry N (SEC [1]) | further results
LovK (25–138), isolated LOV core (domain or fragment, Caulobacter crescentus, UniProt Q9ABE3 25-138, looked up) AAAISATRMAMIVADATQPDIPIIFANDAFLRLTGYARDEVIGRNCRFLQGPDTDPKAIQAVRDALAAGEDVAVDLLNYRKDGSPFWNALNMSPVRNDAGQLVYFFGSQVDVTD | 2 | 
LovK (1–163) (domain or fragment, Caulobacter crescentus, UniProt Q9ABE3 1-163, looked up) MEDYSESRRAGERLAAGHGVDDPFAAAISATRMAMIVADATQPDIPIIFANDAFLRLTGYARDEVIGRNCRFLQGPDTDPKAIQAVRDALAAGEDVAVDLLNYRKDGSPFWNALNMSPVRNDAGQLVYFFGSQVDVTDKKVVELRARDHSDGLQQMVEERTRE | 2 | 
LovK (1–368), full-length Caulobacter crescentus LOV-histidine kinase (enzyme, UniProt Q9ABE3 1-368, looked up) MEDYSESRRAGERLAAGHGVDDPFAAAISATRMAMIVADATQPDIPIIFANDAFLRLTGYARDEVIGRNCRFLQGPDTDPKAIQAVRDALAAGEDVAVDLLNYRKDGSPFWNALNMSPVRNDAGQLVYFFGSQVDVTDKKVVELRARDHSDGLQQMVEERTRELTEALKQKTALLHEVDHRVKNNLQLISSLLLLQNRRVPDPAVKASLRGMLGRVNAIATVHRRLFQSEDVERFDVSAFIRDMVADLMGSAMRDDIRVELDLERVEIPAAKAAPLALVVNELLTNALRHGFPEGRGGRIFVGLSRLNGDFRIEITDDGVGQDRETRASGFGLTIVQLLCQQLKAKWETTDAEPGTRVVVLLPINGTQ |  | stoichiometry N (SEC [2]): 2
LovK C70A (1–368), full-length "blind" mutant (enzyme, Caulobacter crescentus, UniProt Q9ABE3 1-368, looked up) MEDYSESRRAGERLAAGHGVDDPFAAAISATRMAMIVADATQPDIPIIFANDAFLRLTGYARDEVIGRNARFLQGPDTDPKAIQAVRDALAAGEDVAVDLLNYRKDGSPFWNALNMSPVRNDAGQLVYFFGSQVDVTDKKVVELRARDHSDGLQQMVEERTRELTEALKQKTALLHEVDHRVKNNLQLISSLLLLQNRRVPDPAVKASLRGMLGRVNAIATVHRRLFQSEDVERFDVSAFIRDMVADLMGSAMRDDIRVELDLERVEIPAAKAAPLALVVNELLTNALRHGFPEGRGGRIFVGLSRLNGDFRIEITDDGVGQDRETRASGFGLTIVQLLCQQLKAKWETTDAEPGTRVVVLLPINGTQ |  | stoichiometry N (SAXS): 2
LovK (25–163) (domain or fragment, Caulobacter crescentus, UniProt Q9ABE3 25-163, looked up) AAAISATRMAMIVADATQPDIPIIFANDAFLRLTGYARDEVIGRNCRFLQGPDTDPKAIQAVRDALAAGEDVAVDLLNYRKDGSPFWNALNMSPVRNDAGQLVYFFGSQVDVTDKKVVELRARDHSDGLQQMVEERTRE | 2 | 
LovK (1–138) (domain or fragment, Caulobacter crescentus, UniProt Q9ABE3 1-138, looked up) MEDYSESRRAGERLAAGHGVDDPFAAAISATRMAMIVADATQPDIPIIFANDAFLRLTGYARDEVIGRNCRFLQGPDTDPKAIQAVRDALAAGEDVAVDLLNYRKDGSPFWNALNMSPVRNDAGQLVYFFGSQVDVTD | 2 | 
